Data: patent US20060110730A1, “Methods and compositions for regulation and manipulation of steroidogenesis” (priority 2002, published 2006)

B1: full-length StAR: full-length (1-285) steroidogenic acute regulatory protein (protein, UniProt P49675 1-285, looked up)
chain: MLLATFKLCAGSSYRHMRNMKGLRQQAVMAISQELNRRALGGPTPSTWINQVRRRSSLLGSRLEETLYSDQELAYLQQGEEAMQKALGILSNQEGWKKESQQDNGDKVMSKVVPDVGKVFRLEVVVDQPMERLYEELVERMEAMGEWNPNVKEIKVLQKIGKDTFITHELAAEAAGNLVGPRDFVSVRCAKRRGSTCVLAGMATDFGNMPEQKGVIRAEHGPTCMVLHPLAGSPSKTKLTWLLSIDLKGWLPKSIINQVLSQTQVDFANHLRKRLESHPASEARC
modifications: full-length
notes: full-length (1-285) steroidogenic acute regulatory protein

What was measured:
[1] = tested on: COS-1 cells; assay: Pregnenolone production of COS-1 cells co-transfected with F2 (cholesterol side-chain cleavage fusion) and StAR constructs; format: cell-based, monkey; conditions: for increase in steroidogenesis over the StAR-independent level seen with F2 alone: accumulated pregnenolone after 48 h; for steroidogenic activity (in words): pregnenolone in medium
Description: COS-1 cells were grown, transfected and assayed for pregnenolone production as Described (Stocco, D. M. & Clark, B. J. Regulation of the acute production of steroids in steroidogenic cells. Endocr. Rev. 17, 221-244 (1996)), (Bose, H. S., et al. N-218 MLN64, a protein with StAR-like steroidogenic activity is folded and cleaved similarly to StAR. Biochemistry 39, 11722-11731 (2000)). Three independent transfections, each performed in triplicate, were done for each construct.
To determine the location of biological activity of the mitochondrial protein StAR, wild-type and StAR proteins with an N-terminal deletion and StAR proteins fused to a protein that would function to immobilize the StAR protein in one of the four mitochondrial compartments were evaluated for their ability to catalyze steroidogenesis. Nonsteroidogenic COS-I monkey kidney cells were grown, transfected and assayed for pregnenolone production as described (Stocco, D. M. and Clark, B. J., Endocr Rev 17, 221-244 (1996); Bose, H. S., et al., Biochemistry 39, 11722-11731 (2000)). Three independent transfections, each performed in triplicate, were done for each construct. The cells were transfected with a vector expressing full length StAR or a vector expressing N-62 StAR, Tom-StAR, StAR-Tom, Tim44-StAR, or Tim9-StAR. Tom20, Tim9 and Tim44 cDNAs were prepared from human adrenal RNA by RT-PCR. N-62 StAR cDNA including an enterokinase linker fused to 63-285 StAR was derived from a bacterial expression vector (see Artemenko, et al., J. Biol. Chem. 276: 46583-46596 (2001). Tom/StAR is Tom20 fused to 63-285 through GSDDDDK, which contains Bam HI and enterokinase sites (Bam/EK linker). StAR/Tom is 1-285 StAR fused to Tom20 through Eco RI/EK linker (GFDDDDK). Tim9/StAR contains the 25 amino acid mitochondrial leader of cytochrome c oxidase subunit IV (Bose et al, Biochemistry, 37: 9768-9775 (1998)) fused to Tim9 linked to N-30 StAR through the Bam/EK linker. Tim44/StAR is Tim44 fused to 63-285 StAR through the Bam/EK linker. Tom20 has 50 amino-terminal residues embedded in the OMM and 95 residues in the cytoplasm (Abe, Y., et al., Cell 100, 551-560 (2000)). Expression of Tom20 with N-62 StAR fused to its carboxy-terminus (Tom/StAR) affixed StAR to the cytoplasmic side of the OMM. Expression of Tim9, which is normally confined to the IMS (Bauer et al, J. Inher. Metab. Dis. 24: 166-180 (2001)), fused to N-30 StAR (Tim9/StAR) localized StAR to the IMS. Expression of Tim44, which lies on the matrix side of the IMM, fused to N-62 StAR (Tim44/StAR), targeted StAR to the matrix. […]

[2] = tested on: MA-10 mitochondria; assay: Steroidogenic activity (pregnenolone) of isolated MA-10 mitochondria incubated with StAR constructs from cell-free transcription/translation; format: biochemical, mouse
Description: (§1) StAR constructs were bioassayed (Bose, H. S., et al. N-218 MLN64, a protein with StAR-like steroidogenic activity is folded and cleaved similarly to StAR. Biochemistry 39, 11722-11731 (2000)) with MA-10 mitochondria. Linked transcription/translation system was added directly to the mitochondria except when Tim9/StAR was immunoprecipitated with anti-StAR antiserum (Bose, H. S., et al. The active form of the steroidogenic acute regulatory protein, StAR, appears to be a molten globule. Proc. Natl Acad. Sci. USA 96, 7250-7255 (1999)), collected with protein A-sepharose CL-4B (Pharmacia), washed, dissociated from the sepharose-antibody complex at pH 3.0, neutralized and added directly to mitochondria. Immunoassays of pregnenolone were performed after incubation at 378 C. for 1 h; immunoblotting was performed as described (Bose, H. S., et al. N-218 MLN64, a protein with StAR-like steroidogenic activity is folded and cleaved similarly to StAR. Biochemistry 39, 11722-11731 (2000)).
as §1, with “al.,” for “al. N-218 MLN64, a protein with StAR-like steroidogenic activity is folded and cleaved similarly to StAR.”, “al., Proc” for “al. The active form of the steroidogenic acute regulatory protein, StAR, appears to be a molten globule. Proc.”, “Acad Sci” for “Acad. Sci.”, “harvested” for “collected”, “37°” for “378 C.”

[3] = tested on: MA-10 cell mitochondria; assay: Mitochondrial import and cleavage kinetics of StAR constructs; format: biochemical, mouse; conditions: 26° C., phosphorimager quantitation of uncleaved and cleaved imported protein
Description: StAR constructs were cloned into the BglII/EcoRI site of pSP6, transcribed with SP6 RNA polymerase (Promega) and translated with [35S]methionine as described (Chuck, S. & Lingappa, V. Apolipoprotein B intermediates. Nature 356, 115-116 (1992)). Mitochondria, isolated from 5 £ 106 MA-10 or COS-1 cells by hypotonic shock and homogenization (Bose, H. S., et al. N-218 MLN64, a protein with StAR-like steroidogenic activity is folded and cleaved similarly to StAR. Biochemistry 39, 11722-11731 (2000)) were suspended in […] of 125 mM sucrose, 1 mM ATP, 1 mM NADH, 50 mM KCl, 0.05 mM ADP, 2 mM DTT, 5 mM Na-succinate, 2 mM Mg(OAc)2, 2 mM KH2PO4 and 10 mM HEPES buffer at pH 7.4. Mitochondria (50 ml) and 1 ml of the transcription/translationmix were incubated at 268 C. for various times; import was terminated with 1 ml 1 mM mCCCP (Calbiochem). Some mitochondria were extracted with fresh 100 mM Na2CO3, pH 11.5, for 15 min at 48 C. and spun at 15,000 g for 15 min at 48 C. to pellet membranes. Some membranes were incubated with 0.1% digitonin (Sigma) for 15 min at 48 C. and spun at 144,000 g for 1 h at 48 C. to pelletOMMfragments. […] Analysis was by SDS-polyacrylamide gel electrophoresis (SDS-PAGE) and phosphorimager quantification (Molecular Dynamics, Storm 860). […]

| Molecule | increase in steroidogenesis over the StAR-independent level seen with F2 alone [1] [fold] | increase in steroidogenesis ([2]; MA-10 mitochondria incubated with cell-free transcription/translation system expressing the construct, versus control system) [fold] | activity of MA-10 cell mitochondria (in words) ([2]; equal amounts of each protein added, 1 h) | steroidogenic activity of reconstituted mitochondria (in words) ([2]; mitochondria reconstituted from OMM and mitoplast fractions) | steroidogenic activity (in words) [1] | steroidogenic activity (in words) ([1]; listed as full-length (1-285) StAR) | import speed (ranking) [3] |
| --- | --- | --- | --- | --- | --- | --- | --- |
| CC(C)CC[C@@H](O)[C@@H](C)[C@H]1CC[C@H]2[C@@H]3CC=C4C[C@@H](O)CC[C@]4(C)[C@H]3CC[C@]12C [22R-OH-cholesterol, 22R-hydroxycholesterol, reference compound] | ~20 | – | – | – | – | – | – |
| B1 | 6 | ~6 | equally active | active | equivalent at all times measured after transfection | about half the maximal capacity of the cells | Scc/N-62 StAR>>Scc/N-30 StAR>full-length StAR |
